# Measured values reported in PMC1839166, “Type III Effector Activation via Nucleotide Binding, Phosphorylation, and Host Target Interaction” (PLoS Pathogens, 2007).
# How the values were obtained:
# [1] = target: T1, avirulence protein B (AvrB), wild type (Pseudomonas syringae pv. glycinea), P13835; assay: ITC; VP-ITC microcalorimeter; RIN4_(142–176) peptide (50 to 450 μM) titrated in 6-μl injections into 5 to 25 μM wild-type or variant AvrB, stirring at 255 rpm; wild-type AvrB 6 μM with full-length RIN4 120 μM; nonbinding confirmed at as much as 25 μM and 450 μM; settings: remark: other sources report otherwise
# T1 sequence (P13835 whole entry): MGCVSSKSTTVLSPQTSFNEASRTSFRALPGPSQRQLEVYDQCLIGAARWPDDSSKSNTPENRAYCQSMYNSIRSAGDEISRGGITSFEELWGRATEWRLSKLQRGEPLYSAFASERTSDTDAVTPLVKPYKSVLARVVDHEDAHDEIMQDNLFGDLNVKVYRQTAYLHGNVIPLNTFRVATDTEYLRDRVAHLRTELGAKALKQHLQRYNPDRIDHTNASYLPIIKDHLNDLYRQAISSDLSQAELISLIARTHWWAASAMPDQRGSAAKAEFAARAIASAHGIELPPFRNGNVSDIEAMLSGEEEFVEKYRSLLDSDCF
# [2] = target: T1, avirulence protein B (AvrB), wild type …; assay: as above; settings: remark: other sources report otherwise; remark: listed apart in the source
binder,measurement,setting,value
"full-length RIN4, Q8GYN5 1-211 (natural protein) MARSNVPKFGNWEAEENVPYTAYFDKARKTRAPGSKIMNPNDPEYNSDSQSQAPPHPPSSRTKPEQVDTVRRSREHMRSREESELKQFGDAGGSSNEAANKRQGRASQNNSYDNKSPLHKNSYDGTGKSRPKPTNLRADESPEKVTVVPKFGDWDENNPSSADGYTHIFNKVREERSSGANVSGSSRTPTHQSSRNPNNTSSCCCFGFGGK",Kd,[1],4 µM
same,Kd,[2],1 µM
